In assay [1] the target is T1, human dual endothelin-1/VEGF signal peptide receptor (hDEspR), on cells and tissue (human) (UniProt B0L3A2).
T1 sequence: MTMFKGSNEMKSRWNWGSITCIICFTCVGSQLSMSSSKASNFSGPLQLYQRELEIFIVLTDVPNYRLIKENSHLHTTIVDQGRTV
Description: cell-based or functional assay.

The target of assay [2] is T1, human dual endothelin-1/VEGF signal peptide receptor (hDEspR), on cells and tissue (human). Kind of assay: isotype-antibody microbubbles on HUVECs, 800× MB:cell ratio, microscopy (negative control).
Assay [3] has as its target T2, antigenic hDEspR 9-aa peptide (NH2-terminal 9 amino acids of hDEspR) (human).
T2 construct: Free, unconjugated peptide coated on ELISA wells; The KLH conjugate was used only for immunisation; also called DEspR(1-9); free antigenic peptide
T2 peptide: MTMFKGSNE
Description: indirect ELISA on the plate-coated antigenic 9-aa hDEspR peptide; two-fold serial dilutions of hybridoma supernatant holding mAb at 1 µg/ml (1 = 1/2 ... 12 = 1/4096); OD450. (In general: An ELISA detects its analyte on a solid surface through an enzyme-linked reagent.)

For assay [4], the target named is T3, human dual endothelin-1/VEGF signal peptide receptor (hDEspR), on cells and tissue (human, UniProt B0L3A2 1-85).
T3 sequence: T1 sequence
Kind of assay: cell-based or functional assay.

With “endothelin-1 (from UniProt P05305 53-73) (ligand)”, in assay [1], the % CFC, BRCA1 S1497 (Kinex antibody microarray, 30 min, 10 nM ligand) came to 32 % CFC; the % CFC, CDK1/2 T14/Y15 (Kinex antibody microarray, 30 min, 10 nM ligand) came to 53 % CFC; the % CFC, CDK1/2 Y15 (Kinex antibody microarray, 30 min, 10 nM ligand) was determined as 281 % CFC; the % CFC, ERK1/2 T202 + Y204; T185 + Y187 (Kinex antibody microarray, 30 min, 10 nM ligand) was 135 % CFC. Moreover, in assay [1], the % CFC, FAK Panspecific (Kinex antibody microarray, 30 min, 10 nM ligand) stood at 205 % CFC; the % CFC, FAK S722 (Kinex antibody microarray, 30 min, 10 nM ligand) was found to be 55 % CFC; the % CFC, FAK S732 (Kinex antibody microarray, 30 min, 10 nM ligand) is 62 % CFC; the % CFC, Met Panspecific (Kinex antibody microarray, 30 min, 10 nM ligand) was found to be 384 % CFC. Further, in assay [1], the % CFC, PCNA Panspecific (Kinex antibody microarray, 30 min, 10 nM ligand) was -47 % CFC; the % CFC, PKCa T638/T641 (Kinex antibody microarray, 30 min, 10 nM ligand) is 137 % CFC; the % CFC, PKCe Panspecific (Kinex antibody microarray, 30 min, 10 nM ligand) was found to be 103 % CFC; the % CFC, Raf1 S259 (Kinex antibody microarray, 30 min, 10 nM ligand) was 12 % CFC. In assay [1], this molecule gave a % CFC, SHP2 S576 (Kinex antibody microarray, 30 min, 10 nM ligand) of 14 % CFC; a % CFC, STAT1 S727 (Kinex antibody microarray, 30 min, 10 nM ligand) of 86 % CFC; a % CFC, STAT1 Y701 (Kinex antibody microarray, 30 min, 10 nM ligand) of 95 % CFC; a % CFC, STAT3 S727 (Kinex antibody microarray, 30 min, 10 nM ligand) of 133 % CFC. Further, in assay [1], the % CFC, Shc1 or ShcA Y349, Y350 (Kinex antibody microarray, 30 min, 10 nM ligand) amounted to 9 % CFC; the % CFC, Smad 1/5/9 S463 + S465/S465 + S467 (Kinex antibody microarray, 30 min, 10 nM ligand) was determined as 18 % CFC; the % CFC, Src Y418 (Kinex antibody microarray, 30 min, 10 nM ligand) was -11 % CFC; the % CFC, Src Y529 (Kinex antibody microarray, 30 min, 10 nM ligand) was -20 % CFC.

With “isotype-antibody control microbubbles (MBC)”, the % of HUVECs with bound MBs in assay [2] worked out at 6.8%.

B1: anti-hDEspR 7C5B2 monoclonal antibody (antibody, IgG2b, V domains shown)
VH: QVQLKESGPGLVAPSQSLSITCTVSGFSLTSYDISWIRQPPGKGLEWLGVIWTGGGTNYNSAFMSRLSISKDNSKSQVFLKMNSLQTDDTAIYYCVRDRDYDGWYFDVWGAGTTVTVSS
VL: DVLMTQTPLSLPVSLGDQASISCRSSQSIVHSNGNTYLEWYLQKPGQSPKLLIYKVSNRFSGVPDRFSGSGSGTDFTLKISRVEAEDLGVYYCFQGSHVPYTFGGGTKLEIK
notes: Tested as hybridoma supernatant and as purified antibody; also called 7C5B2 antibody; 7C5B2 anti-DEspR antibody
B1: in assay [3], the binding result is listed as “binds”. Also, in assay [4], the “EC50, inhibition of MDA-MB-231 tumor cell invasiveness (Matrigel invasion assay)” value turned out to be 3.55 nM and the “EC50, inhibition of total tube length per well (HUVEC tube formation assay)” value worked out at 4.34 nM.

Values taken from patent publication US20130177500A1 (TRUSTEES OF BOSTON UNIVERSITY, published 2013).
